For test [1], the target named is T1, NS3a/grazoprevir complex (biotinylated NS3a_3 with grazoprevir) (hepatitis C virus genotype 1a).
T1 construct: See note of m30; also called grazoprevir/NS3a complex
The experiment in a line: yeast surface display titration, apparent KD; NS3a_3, 10 drug:1 NS3a.

For test [2], the target named is T2, NS3a/asunaprevir complex (biotinylated NS3a_3 with asunaprevir) (hepatitis C virus genotype 1a).
T2 construct: See note of m30
The test is described as above.

In test [3] the target is T3, NS3a/danoprevir complex (biotinylated NS3a_3 with danoprevir) (hepatitis C virus genotype 1a).
T3 construct: See note of m30; also called danoprevir/NS3a complex
Described as above.

The target in test [4] is T1, NS3a/grazoprevir complex (biotinylated …). The experiment in a line: ratio of apparent KD against the danoprevir/NS3a complex of the same clone.
The target in test [5] is T2, NS3a/asunaprevir complex (biotinylated …). Described as above.
The target in test [6] is T3, NS3a/danoprevir complex (biotinylated …). The experiment in a line: yeast surface display.
The target is the same in test [7].
The target in test [8] is T1, NS3a/grazoprevir complex (biotinylated …). The experiment in a line: yeast surface display; against the NS3a/danoprevir complex.
The target in test [9] is T2, NS3a/asunaprevir complex (biotinylated …). The description is as above.
The target of test [10] is T1, NS3a/grazoprevir complex (biotinylated …). The experiment in a line: yeast surface display; relative binding, too weak for a full titration curve.
Test [11] deals with T2, NS3a/asunaprevir complex (biotinylated …). The test is described as above.
For test [12], the target named is T3, NS3a/danoprevir complex (biotinylated …). The description is as above.
Test [13] has the same target. The experiment in a line: yeast surface display, flow cytometry. (In general: A flow cytometer gives signals particle by particle.)
For test [14], the target named is T1, NS3a/grazoprevir complex (biotinylated …). The experiment in a line: yeast surface display, flow cytometry.
In test [15] the target is T4, NS3aH1-mCherry, no drug (DMSO) (hepatitis C virus).
T4 construct: also called NS3a-mCherry
The experiment in a line: colocalization, confocal microscopy, NIH3T3 cells, no drug.

The target in test [16] is T1, NS3a/grazoprevir complex (biotinylated …). The experiment in a line: yeast surface display.

Where two headings read alike, the source gives them in different places. A value given as a limit tells only on which side of the number the result lay.

B1: DNCR1, yeast surface display (C-terminal fusion to Aga2) (designed binder)
chain: KDNSSTIEGRYPYDVPDYALQASGGGGSGGGGSGGGGSASHMSSDEEEARELIERAKEAAERAQEAAERTGDPRVRELARELKRLAQEAAEEVKRDPSSSDVNEALKLIVEAIEAAVDALEAAERTGDPEVRELARELVRLAVEAAEEVQRNPSSSDVNEALLSIVIAIEAAVHALEAAERTGDPEVRELARELVRLAVEAAEEVQRNPSSREVEHALMKIVLAIYEAEESLREAEESGDPEKREKARERVREAVERAEEVQRDPSGWLNHLEGGGSEQKLISEEDL
As to B1, the Kd is 2900 nM in test [1], 6.3 µM in test [2], 190 nM in [3] and under 200 nM in [6]. For the same molecule, the Fold drug specificity in test [4] was 15 fold; in test [5], 33 fold.

B2: DNCR2, yeast surface display (C-terminal fusion to Aga2) (designed binder)
chain: KDNSSTIEGRYPYDVPDYALQASGGGGSGGGGSGGGGSASHMSSDEEEARELIERAKEAAERAQEAAERTGDPRVRELARELKRLAQEAAEEVKRDPSSSDVNEALKLIVEAIEAAVDALEAAERTGDPEVRELARELVRLAVEAAEEVQRNPSSSDVNEALHSIVYAIEAAIFALEAAERTGDPEVRELARELVRLAVEAAEEVQRNPSSRNVEHALMRIVLAIYLAEENLREAEESGDPEKREKARERVREAVERAEEVQRDPSGWLNHLEGGGSEQKLISEEDL
Turning to B2, the Kd was 2000 nM in test [1], 0.77 µM in test [2] and 0.036 nM in test [7]. Moreover, the Fold drug specificity in test [4] was 56000 fold; in test [5] it was 21000 fold. For the same molecule, the fold specificity in [8] and in [9] was over 20000 fold throughout.

B3: D5, yeast surface display (C-terminal fusion to Aga2) (designed binder)
chain: KDNSSTIEGRYPYDVPDYALQASGGGGSGGGGSGGGGSASHMSSDEEEARELIERAKEAAERAQEAAERTGDPRVRELARELKRLAQEAAEEVKRDPSSSDVNEALKLIVEAIEAAVDALEAAERTGDPEVRELARELVRLAVEAAEEVQRNPSSSDVNEALLTIVIAIEAAVNALEAAERTGDPEVRELARELVRLAVEAAEEVQRNPSSREVNIALWKIVLAIQEAVESLREAEESGDPEKREKARERVREAVERAEEVQRDPSGWLNHLEGGGSEQKLISEEDL
B3: the binding result in [10], in [11] and in [12] was “binds” in each case.

B4: D5 W177D, yeast surface display (designed binder)
chain: SSDEEEARELIERAKEAAERAQEAAERTGDPRVRELARELKRLAQEAAEEVKRDPSSSDVNEALKLIVEAIEAAVDALEAAERTGDPEVRELARELVRLAVEAAEEVQRNPSSSDVNEALLTIVIAIEAAVNALEAAERTGDPEVRELARELVRLAVEAAEEVQRNPSSREVNIALDKIVLAIQEAVESLREAEESGDPEKREKARERVREAVERAEEVQRDPSGWLNH
notes: also called point mutant of the D5 interface, W177D
Take B4: the binding result in test [13] is given as “no binding (tested: 1 µM NS3a with avidity, 10 µM danoprevir)”.

B5: G3 M112E, yeast surface display (designed binder)
chain: DIEKLCKKAEEEAKEAQEKADELRQRHPDSQAAEDAEDLANEAEAAVLAACSLAQEHPNADIAKLCIKAASEAAEAASKAAELAQRHPDSQAARDAIKLASQAARAVILAIELAAENPNADIAKLCIKAASEAAEAASKAAELAQRHPDSQAARDAIKLASQAAEAVERAIWLAAENPNADIAKKCIKAASEAAEEASKAAEEAQRHPDSQKARDEIKEASQKAEEVKERCKS
notes: also called G3 interface point mutant M112E
B5: the binding result in test [14] is “no binding”.

B6: G3 A175Q, yeast surface display (designed binder)
chain: DIEKLCKKAEEEAKEAQEKADELRQRHPDSQAAEDAEDLANEAEAAVLAACSLAQEHPNADIAKLCIKAASEAAEAASKAAELAQRHPDSQAARDAIKLASQAARAVILAIMLAAENPNADIAKLCIKAASEAAEAASKAAELAQRHPDSQAARDAIKLASQAAEAVERAIWLAQENPNADIAKKCIKAASEAAEEASKAAEEAQRHPDSQKARDEIKEASQKAEEVKERCKS
notes: See note of m25; also called G3 interface point mutant A175Q
Take B6: the binding result in test [14] was “no binding”.

B7: ANR-ANR-BFP-CAAX (other)
chain: MGELDELVYLLDGPGYDPIHSDGSGTGSGTGSGTGTTSGTGTGGSTGGELDELVYLLDGPGYDPIHSDGSGTGSGTGSGTGTTSGTGTGGSTGEQKLISEEDLGSGSSELIKENMHMKLYMEGTVDNHHFKCTSEGEGKPYEGTQTMRIKVVEGGPLPFAFDILATSFLYGSKTFINHTQGIPDFFKQSFPEGFTWERVTTYEDGGVLTATQDTSLQDGCLIYNVKIRGVNFTSNGPVMQKKTLGWEAFTETLYPADGGLEGRNDMALKLVGGSHLIANIKTTYRSKKPAKNLKMPGVYYVDYRLERIKEANNETYVEQHEVAVARYCDLPSKLGHKLNRKHKEKMSKDGKKKKKKSKTKCVIM
On to B7, for which the binding result in test [15] was “binds”.

B8: GNCR1, yeast surface display (C-terminal fusion to Aga2) (designed binder)
chain: KDNSSTIEGRYPYDVPDYALQASGGGGSGGGGSGGGGSASHMDIEKLCKKAEEEAKEAQEKADELRQRHPDSQAAEDAEDLANLAVAAVLTACLLAQEHPNADIAKLCIKAASEAAEAASKAAELAQRHPDSQAARDAIKLASQAARAVILAIMLAAENPNADIAKLCIKAASEAAEAASKAAELAQRHPDSQAARDAIKLASQAAEAVERAIWLAAENPNADIAKKCIKAASEAAEEASKAAEEAQRHPDSQKARDEIKEASQKAEEVKERCKSLEGGGSEQKLISEEDL
Turning to B8, the Kd was 140 nM in test [1] and under 200 nM in test [16].

B9: Tom20-BFP-ANR-ANR (other)
chain: MVGRNSAIAAGVCGALFIGYCIYFDRKRRSDPNFMSELIKENMHMKLYMEGTVDNHHFKCTSEGEGKPYEGTQTMRIKVVEGGPLPFAFDILATSFLYGSKTFINHTQGIPDFFKQSFPEGFTWERVTTYEDGGVLTATQDTSLQDGCLIYNVKIRGVNFTSNGPVMQKKTLGWEAFTETLYPADGGLEGRNDMALKLVGGSHLIANIKTTYRSKKPAKNLKMPGVYYVDYRLERIKEANNETYVEQHEVAVARYCDLPSKLGHKLNSGSGEQKLISEEDLGSGTGSGTGSGTGTTSGTGTGGSTGGELDELVYLLDGPGYDPIHSDGSGTGSGTGSGTGTTSGTGTGGSTGGELDELVYLLDGPGYDPIHSDGSGATNFSLLKQAGDVEENPG
For the molecule B9, the binding result in test [15] is on record as “binds”.
